Experimental findings from publication PMC3021526, “Rise and Fall of an Anti-MUC1 Specific Antibody” (PLoS ONE, 2011) are described below.

The target in experiment [1] is synthetic MUC1 glycopeptide APDT(GalNAc)… (human). Briefly: SPR; IIB6 on the MUC1 glycopeptide; data not shown.
The target of experiment [2] is human anti-MUC1 scFv IIB6 (human). The experiment in a line: SEC; 80 µg IMAC purified scFv on Superdex200 10/300, PBS, 0.5 mL/min; monomer to dimer.
Experiment [3] deals with T1, MUC1 15 aa peptide with cysteine (…-C) (human).
T1 sequence (peptide): APDTRPAPGSTAPPAC
Briefly: SPR; Biacore 2000; about 50 RU MUC1 15 aa peptide with cysteine coupled on a CM5 chip (NHS/EDC, PDEA); serial dilutions of scFv (0-400 nM) at 50 µL/min; 1:1 Langmuir separate fitting; IIB6 by steady-state model.

Experiment [4] addresses affinity matured anti-MUC1 scFv HT220-M-G8 (human). The experiment in a line: SEC; 80 µg IMAC purified scFv on Superdex200 10/300, PBS, 0.5 mL/min; monomer to dimer.
Experiment [5] concerns the target T2, MUC1 15 aa peptide with cysteine (APDTRPAPGSTAPPA-C) (Homo sapiens (synthetic peptide)).
T2 construct: 15 residues of the tandem repeat (VNTR) of human MUC1; added C-terminal cysteine, used for coupling to the chip; also called MUC1 peptide; MUC1 peptide antigen
T2 chain: APDTRPAPGSTAPPAC
Briefly: SPR; Biacore 2000; about 50 RU MUC1 15 aa peptide with cysteine coupled on a CM5 chip (NHS/EDC, PDEA); serial dilutions of scFv (0-400 nM) at 50 µL/min; 1:1 Langmuir separate fitting; IIB6 by steady-state model. The conditions noted are these: both partners purified.

For experiment [6], the target named is MUC1 on MCF-7 cells (human (endogenous in MCF-7)) (UniProt P15941). Briefly: flow cytometry on cells; internalisation assay: MCF-7 cells with 10 µg/ml antibody on ice 1 h, washed, 1 h at 4°C; surface antibody detected by PE-conjugated mouse anti-human IgG.
Sequence of MUC1 on MCF-7 cells (human (endogenous in MCF-7)) (P15941 24-1255): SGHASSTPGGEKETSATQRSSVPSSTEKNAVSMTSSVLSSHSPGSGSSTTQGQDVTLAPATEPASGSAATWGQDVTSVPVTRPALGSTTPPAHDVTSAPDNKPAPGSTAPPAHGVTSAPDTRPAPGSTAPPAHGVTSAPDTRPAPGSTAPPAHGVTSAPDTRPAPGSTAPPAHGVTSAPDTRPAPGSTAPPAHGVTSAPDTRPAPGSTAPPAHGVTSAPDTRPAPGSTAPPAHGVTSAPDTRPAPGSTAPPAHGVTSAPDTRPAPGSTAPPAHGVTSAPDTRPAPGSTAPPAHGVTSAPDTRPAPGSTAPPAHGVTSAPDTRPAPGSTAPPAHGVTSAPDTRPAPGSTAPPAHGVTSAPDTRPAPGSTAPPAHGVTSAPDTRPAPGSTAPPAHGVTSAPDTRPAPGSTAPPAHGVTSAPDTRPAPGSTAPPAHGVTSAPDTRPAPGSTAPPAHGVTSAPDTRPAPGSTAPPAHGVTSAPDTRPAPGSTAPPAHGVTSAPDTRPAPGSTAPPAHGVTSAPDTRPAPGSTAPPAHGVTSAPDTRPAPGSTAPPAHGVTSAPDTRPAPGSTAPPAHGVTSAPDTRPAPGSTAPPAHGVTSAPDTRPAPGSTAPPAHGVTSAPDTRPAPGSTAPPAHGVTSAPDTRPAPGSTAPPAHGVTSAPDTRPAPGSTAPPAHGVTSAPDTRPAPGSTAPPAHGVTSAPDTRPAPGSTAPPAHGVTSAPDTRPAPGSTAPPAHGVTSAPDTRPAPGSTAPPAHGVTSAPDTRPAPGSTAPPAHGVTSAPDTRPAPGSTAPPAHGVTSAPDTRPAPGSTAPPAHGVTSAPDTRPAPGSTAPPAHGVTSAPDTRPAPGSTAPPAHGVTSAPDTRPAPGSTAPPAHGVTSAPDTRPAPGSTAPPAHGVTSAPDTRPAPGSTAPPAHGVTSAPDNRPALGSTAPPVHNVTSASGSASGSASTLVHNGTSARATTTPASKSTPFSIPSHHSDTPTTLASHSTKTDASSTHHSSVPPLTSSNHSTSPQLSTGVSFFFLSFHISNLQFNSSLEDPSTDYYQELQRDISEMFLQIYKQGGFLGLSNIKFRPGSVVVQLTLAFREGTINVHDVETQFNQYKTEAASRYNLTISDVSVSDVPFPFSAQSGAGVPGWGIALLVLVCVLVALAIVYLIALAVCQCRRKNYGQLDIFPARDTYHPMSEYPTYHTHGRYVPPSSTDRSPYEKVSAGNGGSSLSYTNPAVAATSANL
Experiment [7] deals with T3, MUC1 32 aa peptide with a C-terminal cysteine (APDTRPAPGSTAPPAHGVTSAPDTRPAPGSTA-C) (Homo sapiens (synthetic peptide)).
T3 construct: 32 residues of the tandem repeats (VNTR) of human MUC1; added C-terminal cysteine; also called MUC1 peptide antigen (32mer cys); MUC1 32mer Cys peptide
T3 chain: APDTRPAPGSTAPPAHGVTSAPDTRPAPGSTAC
Briefly: ELISA; MUC1 32 aa peptide with C-terminal cysteine coated in PBS over night at 4°C; dilution series of purified scFv, scFv-Fc or IgG in 2% M-PBST, 1.5 h at RT; scFv detected by 9E10 (c-myc), scFv-Fc and IgG by anti-human Fc HRP. The conditions noted are these: both partners purified.

B1: human anti-MUC1 scFv IIB6 (scFv, V domains shown)
VH: QMQLVQSGAEVKKPGASVKVSCKASGYTFTGHYMHWVRQAPGQGLEWMGWIDPVTGGTKYAQNFQGWVTMTRDTSIRTAYMELSRLRSDDTAMYYCAREVTGDRGQFDKWGQGTLVTVAS
VL: QSVLTQPPSVSVAPGKTARITCGGNNIGSKSVHWYQQKPGQAPVLVIYYDSDRPSGIPERFSGSNSGNTATLTISRVEAGDEADYYCQVWDSSSDWVFGGGTKLTVL
Regarding B1, the Kd in experiment [1] turned out to be 230 nM; in experiment [3] it was 310 nM. The molecule also yielded a percent of the scFv dimerised in experiment [2] of 50%. The same molecule had a stoichiometry N in experiment [2] of 2.

B2: affinity matured anti-MUC1 scFv HT220-M-G8 (scFv, V domains shown)
VH: QMQLVQSGAEVMKPGASVKVSCKASGYSFTGHYMHWVRHAPGQGLEWMGWIDPVTGSTKYAQNFQGWVTMTRDTSISTAYMELSRLRSDDTAMYYCAREVTGDRGQFDKWGQGTLVTVAS
VL: QSVLTQPPSVSVAPGKTARITCGGNNIGSKSVHWYQQKPGQAPVLVIYYGSDRPSGIPERFSGSNTGNMATLTISRVEAGDEADYYCQVWDSSSDWVFGGGTKLTVL
notes: source: E. coli, IMAC purified; also culture supernatant from microtitre plates; not shown: c-myc, C-terminal, kept
In experiment [4], B2 yielded a percent of the scFv dimerised of 50% and a stoichiometry N of 2. Besides, in experiment [5], the Kd came to 4.4 nM, the koff amounted to 0.00022 s⁻¹ and the association rate constant (kon) was 50000 M⁻¹ s⁻¹.

B3: affinity matured anti-MUC1 scFv HT186-D11 (scFv, V domains shown)
VH: QMQLVQSEAELKKPGASVKVSCKASGYSFTGHYMHWVRQAPGQGLEWMGWIDPVTGGTKYAQNFQGWVTMTRDTSIRTAYLELSRLRSDDTAMYYCAREVTGDRGQFDKWGQGTLVTVAS
VL: QSVLTQPPSVSVAPGKTARITCGGNNIGSKSVHWYQQKPGQAPALVIYYGSNRPSGIPERFSGSNSGNTATLTISRVEAGDEADYYCQVWDSSSDWVFGGGTKLTVL
notes: From IIB6 by error-prone PCR (library A), off-rate panning; source: E. coli, IMAC purified; also culture supernatant from microtitre plates; not shown: c-myc, C-terminal, kept
In experiment [5], B3 registered a Kd of 0.57 nM, a koff of 7.2e-05 s⁻¹ and a kon of 38000 M⁻¹ s⁻¹.

B4: affinity matured anti-MUC1 scFv HT186-G2 (scFv, V domains shown)
VH: RMQLVQSGAEVKKPGASVKLSCKASGYTFAGHYMHWVRQAPGRGLEWMGWIDPVTGGTKYAQNFQGWVTMTRDTSIRTAYMELSRLRSDDTAMYYCAREVTGDRGQFDKWGQGTLVTVAS
VL: QSVLTQPPSVSVAPGKTARITCGGNNIGSKSVHWYQQKPGQAPVLVIYYGSDRSSGIPERFSGSNSGNTATLTISRVEAGDEADYYCQVWDSSSDWVFGGGTKLTVL
notes: as for B3
In experiment [5], B4 returned a Kd of at most 1 nM, a koff of at most 1e-05 s⁻¹ and a kon of 72000 M⁻¹ s⁻¹.

B5: affinity matured anti-MUC1 scFv HT220-M-D1 (scFv, V domains shown)
VH: QMLLVQSGAEAKKPGASVKVSCKASGYTFTGHYMHWVRQAPGQGLEWMGWIDPVTGGTKYAQNFQGWVTMTRDTSIRTAYMELSRLRPDDTAMYYCAREVTGDRGQFDKWGQGTLVTVAS
VL: QSVLTQPPSVSVVPGKTARIICGGNNIGSKSVHWYQQKPGQAPVLVIYNNSDRPSGIPERFSGSNSGNMATLTISRVEAGDESDYYCQVWDSSSDWVFGGGTRLTIL
notes: one potential N-glycosylation site in CDR2; source: E. coli, IMAC purified; also culture supernatant from microtitre plates; not shown: c-myc, C-terminal, kept
For the molecule B5, in experiment [5], the dissociation constant Kd is 3.7 nM, the koff is 0.00011 s⁻¹ and the kon came out at 29000 M⁻¹ s⁻¹.

B6: HT186-D11 human IgG (antibody, V domains shown)
VH: QMQLVQSEAELKKPGASVKVSCKASGYSFTGHYMHWVRQAPGQGLEWMGWIDPVTGGTKYAQNFQGWVTMTRDTSIRTAYLELSRLRSDDTAMYYCAREVTGDRGQFDKWGQGTLVTVAS
VL: QSVLTQPPSVSVAPGKTARITCGGNNIGSKSVHWYQQKPGQAPALVIYYGSNRPSGIPERFSGSNSGNTATLTISRVEAGDEADYYCQVWDSSSDWVFGGGTKLTVL
As for B6, the percentage of MUC1 positive cells (4°C) in experiment [6] was 68%.

B7: affinity matured anti-MUC1 scFv HT186-B7 (scFv, V domains shown)
VH: QMQLVQSGAEVKKPGASVKVSCKASGYTFTGHYMHWVRQAPGQGLEWMGWIDPVTGGTKYAQNFQGWVTMTRDTSIRTAYMELSRLRSDDTAMYYCAREVTGDRGQFDKWGQGTLVTVAS
VL: QSVLTQPPSVSVAPGKTARITCGGNNIGSKSVHWYQQKPGQAPALVIYYGSYRPSGIPERFSGSNYGNTATLTIRRVEAGDEADYYCQVWDSSSDWVFGGGTKLTVL
notes: as for B3
For B7, in experiment [5], the Kd was 1.3 nM, the koff amounted to 2.1e-05 s⁻¹ and the kon came to 35000 M⁻¹ s⁻¹.

B8: affinity matured anti-MUC1 scFv HT200-3A-C1 (scFv, V domains shown)
VH: QMQLVQSGAEVKKPGASVKVSCKASGYTFTGHYMHWVRQAPGQGLEWMGWIDPVTGGTKYAQNFQGWVTMTRDTSIRTAYMELSRLRSDDTAMYYCAREVTGDRGQFDKWGQGTLVTVAS
VL: QSVLTQPPSVSMAPGETARITCGGNNIGSKSVHWYQQKPGQAPVLVIYNDSDRPSGIPERFSGSNSGKTATLTISRVEAGDEADYYCQVWDSSIDWVFGGGTKLTVL
notes: one potential N-glycosylation site in CDR2; From IIB6 by nested error-prone PCR (library B), panning in solution; source: E. coli, IMAC purified; also culture supernatant from microtitre plates; not shown: c-myc, C-terminal, kept
On to B8, for which, in experiment [5], the affinity, expressed as Kd, was 2.1 nM; the koff is 0.0001 s⁻¹; the kon turned out to be 49000 M⁻¹ s⁻¹.

B9: HT186-G2 human IgG (antibody, V domains shown)
VH: RMQLVQSGAEVKKPGASVKLSCKASGYTFAGHYMHWVRQAPGRGLEWMGWIDPVTGGTKYAQNFQGWVTMTRDTSIRTAYMELSRLRSDDTAMYYCAREVTGDRGQFDKWGQGTLVTVAS
VL: QSVLTQPPSVSVAPGKTARITCGGNNIGSKSVHWYQQKPGQAPVLVIYYGSDRSSGIPERFSGSNSGNTATLTISRVEAGDEADYYCQVWDSSSDWVFGGGTKLTVL
notes: as the VH of m4; human IgG heavy-chain constant region from the expression vector CHK622-08; as the VL of m4; C lambda derived from the vector CHL558-0; VH and VL ordered as synthetic genes, codon optimised for rat; also called HT186-G2 IgG
As for B9, in experiment [7], the “fold decrease of affinity against the scFv-Fc format” value was about 10 fold.
